Reference: the supplement of paper PMC9170038

Tested on: MS2 coat protein
Assay: apparent KD of MS2 coat protein; designed switch direction (-1 OFF switch, 1 ON switch): -1; higher = weaker reporter binding
How it was run: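 The apparent KD reported per design is the median over clusters of curve fits to normalised cluster fluorescence. The RNA switches were transcribed on Illumina chips by stalled E. coli RNA polymerase. SNAP-549-labelled MS2 coat protein was titrated from 0.7 or 1.5 nM, doubling up to 3 µM, in Tris-HCl pH 7.5 buffer containing KCl, MgCl2, BSA, DTT, tRNA and Tween-20, with no input, 200 uM small-molecule ligand, or an oligonucleotide input.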

[1] = input ligand: microRNA oligo, concentration not stated
[2] = Eterna round: R95, input ligand: microRNA oligo, concentration not stated
[3] = Eterna round: R95, input ligand: FMN 200 uM
[4] = Eterna round: R95, input ligand: none

| Sequence | apparent KD of MS2 coat protein (input ligand: FMN 200 uM) [nM] | apparent KD of MS2 coat protein [1] [nM] | apparent KD of MS2 coat protein (input ligand: none) [nM] | apparent KD of MS2 coat protein [2] [nM] | apparent KD of MS2 coat protein [3] [nM] | apparent KD of MS2 coat protein [4] [nM] |
| --- | --- | --- | --- | --- | --- | --- |
| UCUGCAACGCAAGGAUAUCUUAGAGUUGAAGAAAGAGAAGGUGCAGGUGAUAACAUGCCCGUAACAUGAGGAUCACCCAUGUAA [Eternabot solution 48] (Eterna round: R96, puzzle: Exclusion NG 1) | 96.1 | 68.3 | 79.3 |  |  |  |
| UCUGCCGCCGUGAGGAUAUGCCCGCGCGAACGCGGGCAGAAGGCACAUGAGGAUCACCCAUGUCCCGCGGUUUU [salish99_bmx4_r4_132] (Eterna round: R97, puzzle: Brourd's mod of Exclusion 4) | 34.7 |  | 17.2 |  |  |  |
| UCUGGUCGAGGAUAUACGUGAGGUGUUUCGGCACUAGGUCUACAUGAGGAUCACCCAUGUAGAAGGCGAUCAGA [EX2 #64] (Eterna round: R97, puzzle: Exclusion 2) | 536 |  | 60.6 |  |  |  |
| UCUGGUCGAGGAUAUAUAUGACGUGCUUCGGCACGAAGGUCACAUGAGGAUCACCCAUGUAGAAGGCGACCAGA [E2/9-A3] (Eterna round: R97, puzzle: Exclusion 2) | 375 |  | 52.1 |  |  |  |
| UCUGUUAUGCGAGGAUAUCGACCAUUCCUCUUAACAUGAGGAUCACCCAUGUGCUAAUCCUUCAACGAGAAGGCGCUCUUACUC [JR_ExcNG2_Sub069] (Eterna round: R96, puzzle: Exclusion NG 2) | 346 | 114 | 268 |  |  |  |
| UCUUAUUGCAAGGAUAUGCUUUUUAUUUCUUUUGCAGAAGGUGCAACAUGAGGAUCACCCAUGUUUCCGGGUAU [JR_E6_Sub034] (puzzle: Exclusion 6) |  |  |  | 23.8 |  |  |
| UCUUCACAUGAGGAUCACCCAUGUGAGGAUAUGGUUUCGCUGGCCGUAGCCAGUGGAACCAGAAGGCGCAUGAU [Mat - Exclusion 1 - JL Mod - D7] (Eterna round: R97, puzzle: Exclusion 1) | 21.5 |  | 26.1 |  |  |  |
| UCUUGCUGGCGAGGAUAUCCUGUGCGGUUCCGGCUCGUGUCUGUUACAUGAGGAUCACCCAUGUGGGAGAAGGUGUCUGUGGCC [Design 97] (Eterna round: R96, puzzle: Exclusion NG 2) | 18.6 | 16.7 | 21.9 |  |  |  |
| UGAAAGGUAGGAUAUACGAAGAAAAAGGGUAGAAUAAUAACACAUGAGGAUCACCCAUGUAGAAGGACCAAAGG [Mat - Exclusion 2 - Mod of my Tesla design - D9] (puzzle: Exclusion 2) |  |  |  | 23.2 | 70.1 | 25.2 |
| UGAAUGUCAGAGGAUAUGCACGAUUGGACCGAGGCAGAAGGCUGAACAUGAGGAUCACCCAUGUCAAGAUCUUC [Eternabot (L1) Solution 93] (Eterna round: R97, puzzle: Exclusion 6) | 180 |  | 26.3 |  |  |  |
| UGAGAACAUGAGGAUCACCCAUGUAAGGAUAUGCGAAGAGUUUGGAGAGGUUGAGGAGGCAGAAGGUACGGGAG [JR_Exclu1_Sub045] (puzzle: Exclusion 1) |  |  |  | 49.9 | 50.2 | 74.3 |
| UGAGCUGAAGGAUAUGCGUAAUCACGGUGACGUGUAGAUCUACAUGAGGAUCACCCAUGUAGAAGGUCAGUUCU [Mat - Exclusion 2 - JL Mod - D33] (Eterna round: R97, puzzle: Exclusion 2) | 17 |  | 16.1 |  |  |  |
| UGAGCUUCAGGAUAUACGUGACGUCCGUGAGGACGAAGGUUACAUGAGGAUCACCCAUGUAGAAGGGAAGUUCU [Mat - Exclusion 2 - JL Mod - D31] (Eterna round: R97, puzzle: Exclusion 2) | 60.8 |  | 31.6 |  |  |  |
| UGAGUGCGUGUUAGGAUAUGGUUUGGUAUUUCGGGCUAGAAGGGACAUGAGGAUCACCCAUGUAAUUGGCGGGU [-17.2, -16.9 kcal, 22% A] (Eterna round: R97, puzzle: Brourd's mod of Exclusion 4) | 259 |  | 227 |  |  |  |
| UGAGUGUUAGGAUAUCGCGGUUAGGCGAGUUGCUUAAUGAUCGAGAAGGGACAUGAGGAUCACCCAUGUGGGAC [Eternabot (L1) Solution 40] (Eterna round: R97, puzzle: Exclusion 4) | 127 |  | 112 |  |  |  |
| UGAUCUAGCGGAGGAUAUACAUGAGGAUCACCCAUGUAUAGUCCAUGUGGUGACACGUGGAACAUGUAGAAGGCCGCUAGAUCU [JL ENG2 3.83] (Eterna round: R96, puzzle: Exclusion NG 2) | 228 | 24.8 | 23.1 |  |  |  |
| UGAUCUAGGCGAGGAUAUACAUGAGGAUCACCCAUGUAAACGUGACAUGAAAACAUGUCACGAAUGUAGAAGGCGCCUAGAUCU [JL ENG2 3.54] (Eterna round: R96, puzzle: Exclusion NG 2) | 21.7 | 13.2 | 13.3 |  |  |  |

| Sequence | apparent KD of MS2 coat protein (input ligand: FMN 200 uM) [nM] | apparent KD of MS2 coat protein [1] [nM] | apparent KD of MS2 coat protein (input ligand: none) [nM] | apparent KD of MS2 coat protein [2] [nM] | apparent KD of MS2 coat protein [3] [nM] | apparent KD of MS2 coat protein [4] [nM] |
| --- | --- | --- | --- | --- | --- | --- |
| UGAUCUUUUGUUAGGAUAUGCUGUUGUUUUCAACAGCAGAAGGGACAUGAGGAUCACCCAUGUCUUGUCAUAAA [Magic-04] (puzzle: Brourd's mod of Exclusion 4) |  |  |  | 12.7 |  |  |
| UGAUCUUUUGUUAGGAUAUGCUGUUUUUUUUUACAGCAGAAGGGACAUGAGGAUCACCCAUGUCUUGUCAUAAA [Magic-05] (puzzle: Brourd's mod of Exclusion 4) |  |  |  | 12.4 |  |  |
| UGAUGACAUGAGGAUCACCCAUGUCAGGAUAUGCUUCGGCUUCGGAAAUGAAGUUGAAGUAGAAGGGACUGUCG [-27.1, -24.1 kcal, A 28% sequence 3 bis] (Eterna round: R97, puzzle: Exclusion 1) | 37.7 |  | 27.8 |  |  |  |
| UGAUGUACUCAGGAUAUGAGUAGCUUUCGAGCAUCAGAAGGGAGUACAUGAGGAUCACCCAUGUUGGCCAUGUU [EX6 C.9] (Eterna round: R97, puzzle: Exclusion 6) | 81.2 |  | 683 |  |  |  |
| UGAUUCCUAGGAUAUGCUGGAUAUGAGGUCCCGAGUUGCCGACAUGAGGAUCACCCAUGUAGAAGGAGGUGUCG [Eternabot (L1) Solution 66] (Eterna round: R97, puzzle: Exclusion 2) | 199 |  | 105 |  |  |  |
| UGCAAGCUUUUAAGAUCCUACAUGAGGAUCACCCAUGUGGCUCGUCUUAUACGUACUGUGACGAAAGUCACGGUACG [JL TOV1 3.98] (Eterna round: R97, puzzle: Sensor, turn-off variant 1) | 25.4 |  | 22.8 |  |  |  |
| UGCAAGCUUUUGAGAUCCUACAUGAGGAUCACCCAUGUGCUCGUCUUAUAACGUACUGUGACGAAAGUCACGGUACG [JL TOV1 3.97] (Eterna round: R97, puzzle: Sensor, turn-off variant 1) | 184 |  | 222 |  |  |  |
| UGCAUGCUAGGAUAUACGAAACAUUAGGGUUCGUCGUAUGAACAUGAGGAUCACCCAUGUAGAAGGAGCGUGCU [Mod6 of JL-ex2-2.15 mat747 mod] (puzzle: Exclusion 2) |  |  |  | 16.8 |  |  |
| UGCAUGCUAGGAUAUACGGGACAUUAGGGUUCGUCGUAUGGACAUGAGGAUCACCCAUGUAGAAGGAGCGUGCU [Mod4 of JL-ex2-2.15 mat747 mod] (puzzle: Exclusion 2) |  |  |  | 18.7 |  |  |
| UGCCCGGUUAGAGGAUAUCUACUGUGACUGGGUUUUCCAAAACAUGAGGAUCACCCAUGUGACGGAGAGAAGGCUAGCCUUAAA [Anedanage] (Eterna round: R96, puzzle: Exclusion NG 2) | 26.8 | 31.1 | 40.1 |  |  |  |
| UGCCUAUGAGGAUAUACGUAGAAAUAGAUUCAUGUAAAACUACAUGAGGAUCACCCAUGUAGAAGGCAUGGGCU [Mat - Exclusion 2 - JL Mod - D49] (Eterna round: R97, puzzle: Exclusion 2) | 27.5 |  | 16 |  |  |  |
| UGCGAAGAGUGAGGAUAUGUGCGACAAAGUUGCACAGAAGGCACAUGAGGAUCACCCAUGUGAGCUAGGUCGAAAGACCUAGCG [Omei Exc(NG)1 Av7] (Eterna round: R96, puzzle: Exclusion NG 1) | 43.4 | 17.3 | 24.8 |  |  |  |
| UGCGAGUAAGGAUAUUCGCGACCACCCACAAGGGCGGUCGAGAAGAAGGUACUUGAGGAUCACCCAAGUCCUAA [Inraindi] (Eterna round: R97, puzzle: Exclusion 4) | 95.5 |  | 20.2 |  |  |  |
| UGCGUUCAAGGAUAUACAUGAGGAUCACCCAUGUGGAUGGCCGUUGUGUGAACACUUAGUAGAAGGUGACACGG [Eternabot (L2) Solution 5] (Eterna round: R97, puzzle: Exclusion 3) | 51.8 |  | 71.2 |  |  |  |
| UGCUACGGAGGAUAUACAUGAGGAUCACCCAUGUGAGAGAUUUAGCCGAGAGGCUAGUGUAGAAGGCCGUAGCU [jl-ex3-4.17 jl mod] (Eterna round: R97, puzzle: Exclusion 3) | 400 |  | 62.8 |  |  |  |
| UGCUGACGAGGAUAUACAUGAGGAUCACCCAUGUAAGAUCAGCGACGAUAGUCGCAAUGUAGAAGGCGUCAGCA [E3/10-A3] (Eterna round: R97, puzzle: Exclusion 3) | 228 |  | 28.5 |  |  |  |
| UGCUGACGAGGAUAUACAUGAGGAUCACCCAUGUUGGUUCAGCGACGAUAGUCGCAAUGUAGAAGGUGUCAGCA [E3/9-B2] (Eterna round: R97, puzzle: Exclusion 3) | 748 |  | 97.2 |  |  |  |
